# Laboratory results published in PMC9938351.
# Tests used:
# [1] = biological target: SARS-CoV-2 ubiquitin-like domain 1 (Ubl1) of Nsp3 (residues 1–111) (SARS-CoV-2); test: dynamic light scattering
# [2] = biological target: SARS-CoV-2 ubiquitin-like domain 1 (Ubl1) of Nsp3 (residues 1–111) (SARS-CoV-2); test: cross-linking
# [3] = biological target: SARS-CoV-2 nucleocapsid (N) protein (residues 1–419) (SARS-CoV-2) (UniProt P0DTC9); test: ITC
Substance,stoichiometry N [1],stoichiometry N [2],Kd [3],dH [3],stoichiometry N [3]
"SARS-CoV-2 N protein N-terminal domain (NTD, residues 47–174) (from UniProt P0DTC9 47-174) (domain or fragment)",0.5 NTD per Ubl1,,,,
SARS-CoV-2 ubiquitin-like domain 1 (Ubl1) of Nsp3 (residues 1–111) (domain or fragment),,2,0.8 µM,-14.9 kcal/mol,1.19
